Source: US20240029824A1 (University of Washington, published 2024)
One block for each binder: values may come before it.

Legend:
DHT10 chain C = target: T1, DHT10 chain C; test: co-expression, IMAC, SEC, native MS; chains of one ABC heterotrimer
T1 chain: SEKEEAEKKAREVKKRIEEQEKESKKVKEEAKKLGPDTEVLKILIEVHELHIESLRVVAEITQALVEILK
Source text: (§1) Genes encoding 85 heterotrimers in a tricistronic expression vector were obtained, and the proteins were expressed in E. coli and purified via IMAC with only one chain having the 6×His-tag. Nine of the designs (FIG. 3a) had monodisperse SEC peaks (FIG. 3b), were almost exclusively ABC by nMS, and had good SAXS fits to the design models (Table 7). […] Eight of the designs are parallel heterotrimers, while DHTO9 is an antiparallel heterotrimer. […] For 3 other designs, only the ABC heterotrimer was determined to form by nMS (when the respective SEC fraction was analyzed) but the heterotrimer SEC peak was preceded by soluble aggregate that would make building with these constructs difficult downstream. We explored the dependence of cooperativity on connectivity between the three chains by changing the positions of the loops across different helices in DHT03, while keeping the rest of the interface intact. […] The ability to sustain alternate loop closures increases the number of heteromeric building blocks available for future nanostructure assembly applications and may enable rigid fusion of functional domains to the different termini available.
(§2) Samples were analyzed by online buffer exchange native mass spectrometry (nMS) to evaluate sample purity and accurately determine oligomeric states⁴². Multiple instruments were used as the analyses were carried out over the duration of the protein design process. The mass spectrometers used for detection were a Q Exactive™ UHMR modified with a surface-induced dissociation device and an Exactive™ Plus EMR modified with a selection quadrupole and a surface-induced dissociation device (Thermo Fisher Scientific)⁴³. The liquid chromatography systems used for the buffer exchange include a Vanquish™ Duo UHPLC and a Dionex™ Ultimate 3000 HPLC (Thermo Fisher Scientific). A heated electrospray ionization source (HESI-II, Thermo Fisher Scientific) with a spray voltage of ˜4 kV was used for ionization.

DHT04 chain C = target: T2, DHT04 chain C; test: as above
T2 chain: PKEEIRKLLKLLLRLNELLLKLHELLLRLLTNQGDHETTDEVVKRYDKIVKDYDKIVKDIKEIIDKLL
Source text: as §1, §2

DHT09 chain C = target: T3, DHT09 chain C; test: as above
T3 chain: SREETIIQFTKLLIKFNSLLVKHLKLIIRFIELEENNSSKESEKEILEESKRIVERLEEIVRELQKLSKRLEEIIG
Source text: as §1, §2

[1] = target: T4, DHT03_variant_ABC-2 chain C; test: native MS; loop-connectivity variant of DHT03, chains of one ABC heterotrimer
T4 chain: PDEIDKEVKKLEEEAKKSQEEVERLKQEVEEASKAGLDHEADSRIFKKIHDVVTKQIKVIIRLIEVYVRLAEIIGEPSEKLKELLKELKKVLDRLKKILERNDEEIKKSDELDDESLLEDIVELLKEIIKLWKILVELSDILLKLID

DHT06 chain C = target: T5, DHT06 chain C; test: co-expression, IMAC, SEC, native MS; chains of one ABC heterotrimer
T5 chain: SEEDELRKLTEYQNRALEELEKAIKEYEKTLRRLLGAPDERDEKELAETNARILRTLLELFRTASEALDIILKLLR
Source text: as §1, §2

DHT07 chain C = target: T6, DHT07 chain C; test: as above
T6 chain: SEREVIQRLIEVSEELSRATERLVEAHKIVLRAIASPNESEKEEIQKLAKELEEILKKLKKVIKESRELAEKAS
Source text: as §1, §2

[2] = target: T7, DHT03 chain C (SEQ ID NO: 65); test: co-expression, SEC, native MS, SAXS; chains of one ABC heterotrimer
T7 chain: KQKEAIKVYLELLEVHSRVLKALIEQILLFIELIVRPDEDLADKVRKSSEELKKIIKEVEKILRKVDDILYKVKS

DHT08 chain C = target: T8, DHT08 chain C; test: co-expression, IMAC, SEC, native MS; chains of one ABC heterotrimer
T8 chain: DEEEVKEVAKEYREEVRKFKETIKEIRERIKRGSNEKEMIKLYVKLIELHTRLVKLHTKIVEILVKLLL
Source text: as §1, §2

DHT01 chain C = target: T9, DHT01 chain C; test: co-expression, IMAC and Strep-Tactin pull-down, SEC, native MS; chains of one ABC heterotrimer
T9 chain: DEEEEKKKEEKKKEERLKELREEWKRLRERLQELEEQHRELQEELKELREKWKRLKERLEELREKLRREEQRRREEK
Source text: We obtained genes encoding 20 coiled coil designed heterotrimers (DHTs) in a tricistronic E. coli expression vector with one chain having a 6×His-tag and a second chain having Strep-tag II, expressed the proteins, and purified by immobilized metal affinity chromatography (IMAC) and Strep-Tactin pull-down. All designs were soluble and for 6 designs, all three components were observed by liquid chromatography-mass spectrometry (LC-MS) after both pull-down approaches. Of these, 5 eluted as monodisperse peaks by SEC, but only 1 design (DHT01) was an exclusive ABC heterotrimer by native mass spectrometry (nMS) and had good agreement with the design model via small angle X-ray scattering (SAXS) (FIG. 2d, Table 7).
as §2, with “ionization. Protein samples stored in Tris buffer were injected (0.1-2 ug) onto the LC system and exchanged at a flow rate of 100-200 uL*min⁻¹ into 200 mM ammonium acetate (mobile phase) prior to ionization. Buffer exchange columns used include self-packed columns with P6 polyacrylamide gel (Bio-Rad Laboratories) and prototype buffer exchange columns provided by Thermo Fisher Scientific (Sunnyvale, CA). Instrument parameters were optimized to allow for ion transmission while minimizing unintentional ion activation. […]” for “ionization.”

DHT02 chain C = target: T10, DHT02 chain C; test: co-expression, IMAC, SEC, native MS; chains of one ABC heterotrimer
T10 chain: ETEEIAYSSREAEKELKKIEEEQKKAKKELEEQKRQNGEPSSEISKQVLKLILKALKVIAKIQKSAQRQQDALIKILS
Source text: as §1, §2

binding result (DHT10 chain C): binds
B1: DHT10 chain B (designed binder)
chain: SELEEEIKRIRKEIEESRRRIEELRKKAQKAREGSSEKEFLQIYIELQKVLIEQIKIYIELLQIIFELQS

binding result (DHT04 chain C): binds
B2: DHT04 chain B (designed binder)
chain: DEELIIYIIELLLKDDELLLKSLEIILRIIQLQLTSKDKDDGTDKIKKLVDESKKILDDSERLAEELRKIEEKLK

binding result (DHT09 chain C): binds
B3: DHT09 chain B (designed binder)
chain: SKEEILKLHLEVAEIHIETVKIYLEVIKILIRLIEKNSSKEDERELEEELKELERELEELQKKLEEIRKELQEIEG

binding result [1]: binds
Binder: QKEAIKVYLELLEVHSRVLKALIEQIKLFIELIKRK (designed binder) [DHT03_variant_ABC-2 chain B]

binding result (DHT06 chain C): binds
B4: DHT06 chain B (designed binder)
chain: SEEDELEKAIREQKKALERLKEAIERYEETLKRGKNEKELAKTNAEILKTLLELFKSQLELAEIILKLLR

binding result (DHT07 chain C): binds
B5: DHT07 chain B (designed binder)
chain: DREEKLERETEKLEKKIRESQRRMEELRKQIETDPDEKELLEILIRSLRLLEEQLEALRKLNHAAQQLLG

binding result [2]: binds
B6: DHT03_2arm_A21/Bt18/C chain B (designed binder)
chain: TEEKIAKEISRIAEESKKRIEELARKADNKTTETEVDKAIEKIAKLAREAIKRIEDLAKNLASEEFMARAISAIAELAKKAIEAIYRLADNHTTDTFMAKAIEAIAELAKEAIKAIADLAKNHTTEEFMARAISAIAELAKKAIEAIYRLADNHTTDTFMAKAIEAIAELAKEAIKAIADLAKNHTTEEFMAKAISAIMELAVKAILAIARLASNHTSQTYREKAREAVEKIARTAEKAIEDLAKNITTEEYKERAKKARAIVRVMAEVAKLLIEAVESQEEVERLKQEVEKASKAGLDHEGDSRIFKKIHDVVTKQIKVIIRLIAVYAELVAIIG

binding result (DHT08 chain C): binds
B7: DHT08 chain B (designed binder)
chain: DKEEKIKEILRRVQELRREHEELEERLKELKKELEKSPSQEELKKFIKLAQELIKLTLELIELSLRLIELLLG

binding result (DHT01 chain C): binds
B8: DHT01 chain B (designed binder)
chain: SEQERREKAKEEVRELNEEFKEAEKRFRKLQEETKKALEEVEELNQRFEEALEEVERIKRRQK

binding result (DHT02 chain C): binds
B9: DHT02 chain B (designed binder)
chain: PQLDKFRDESRYLDKASKEVEDEIKKIEKIIRDADEKSLPEEALQDVVKSVVKVYLKSVKETIKSIELVIELIKVIM
